Reference: US20130052176, “APTAMER FOR NGF AND USE THEREOF” (SHIONOGI & CO., LTD, published 2013)

How the values were obtained:
[1] = target: T1, NGF (nerve growth factor) (human, UniProt P01138 P01138:122-241); experiment: cell_activity; neurite outgrowth, NGF 1.1 nM; SPR binding; TF-1 IC50 >30 nM; conditions: tags: amine-coupled to CM5 chip in SPR; soluble in cell assays; chain copies: 2
Description: (§1) The neurite outgrowth inhibitory activity of the aptamer obtained in Example 1 was evaluated by using Neuroscreen-1 cell, which is a subclone of PC-12 cells.
(§2) The cells (2500 cells per well) were cultured for one day in an RPMI-1640 medium containing 2.5% horse serum and 1.25% fetal bovine serum in a 96 well flat-bottom plate coated with collagen type IV. […] Two days later, the cytoplasm and nuclei were stained using Cellomics Neurite Outgrowth Kit (manufactured by Thermo Scientific), and neurite length per cell was measured by Cellomics ArrayScan VTI (manufactured by Thermo Scientific). With the neurite length per cell obtained by the addition of NGF alone as inhibitory activity 0%, and that of the cell obtained by NGF free culture for 2 days as inhibitory activity 100%, the inhibitory activity of the aptamer was calculated from the neurite length per cell obtained by culturing with the addition of NGF and the aptamer in mixture. When the inhibitory activity was 0% or below, ‘0%’ is indicated.

[2] = target: T1, NGF (nerve growth factor); experiment: cell_activity; neurite outgrowth, NGF 0.38 nM; SPR binding; TF-1 IC50 2.8 nM; conditions: tags: amine-coupled to CM5 chip in SPR; soluble in cell assays; chain copies: 2
Description: as §1, §2

[3] = target: T1, NGF (nerve growth factor); experiment: cell_activity; neurite outgrowth, NGF 0.38 nM; SPR binding; TF-1 IC50 0.154 nM; conditions: tags: amine-coupled to CM5 chip in SPR; soluble in cell assays; chain copies: 2
Description: as §1, §2

[4] = target: T1, NGF (nerve growth factor); experiment: cell_activity; neurite outgrowth, NGF 1.1 nM; TF-1 IC50 <1.0 nM; conditions: tags: human NGF; chain copies: 2
Description: as §1, §2

[5] = target: T1, NGF (nerve growth factor); experiment: cell_activity; neurite outgrowth, NGF 0.38 nM; TF-1 IC50 0.165 nM; conditions: tags: human NGF; chain copies: 2
Description: as §1, §2

[6] = target: T1, NGF (nerve growth factor); experiment: cell_activity; neurite outgrowth, NGF 0.38 nM; TF-1 IC50 0.074 nM; conditions: tags: human NGF; chain copies: 2
Description: as §1, §2

[7] = target: T1, NGF (nerve growth factor); experiment: cell_activity; neurite outgrowth, NGF 0.38 nM; TF-1 IC50 0.044 nM; conditions: tags: human NGF; chain copies: 2
[8] = target: T1, NGF (nerve growth factor); experiment: cell_activity; neurite outgrowth, NGF 0.38 nM; TF-1 IC50 0.069 nM; conditions: tags: human NGF; chain copies: 2
Description: as §1, §2

[9] = target: T1, NGF (nerve growth factor); experiment: cell_activity; neurite outgrowth, NGF 0.38 nM; TF-1 IC50 0.146 nM; conditions: tags: human NGF; chain copies: 2
Description: as §1, §2

[10] = target: T1, NGF (nerve growth factor); experiment: cell_activity; neurite outgrowth, NGF 0.38 nM; TF-1 IC50 0.193 nM; conditions: tags: human NGF; chain copies: 2
Description: as §1, §2

[11] = target: T1, NGF (nerve growth factor); experiment: cell_activity; neurite outgrowth, NGF 0.38 nM; TF-1 IC50 0.104 nM; conditions: tags: human NGF; chain copies: 2
Description: as §1, §2

[12] = target: T1, NGF (nerve growth factor); experiment: cell_activity; neurite outgrowth, NGF 0.38 nM; TF-1 IC50 0.176 nM; conditions: tags: human NGF; chain copies: 2
Description: as §1, §2

[13] = target: T1, NGF (nerve growth factor); experiment: cell_activity; neurite outgrowth, NGF 0.38 nM; TF-1 IC50 0.064 nM; conditions: tags: human NGF; chain copies: 2
Description: as §1, §2

[14] = target: T1, NGF (nerve growth factor); experiment: cell_activity; neurite outgrowth, NGF 0.38 nM; TF-1 IC50 0.164 nM; conditions: tags: human NGF; chain copies: 2
Description: as §1, §2

[15] = target: T1, NGF (nerve growth factor); experiment: cell_activity; neurite outgrowth, NGF 0.38 nM; TF-1 IC50 0.100 nM; conditions: tags: human NGF; chain copies: 2
Description: as §1, §2

[16] = target: T1, NGF (nerve growth factor); experiment: cell_activity; neurite outgrowth, NGF 0.38 nM; TF-1 IC50 0.130 nM; conditions: tags: human NGF; chain copies: 2
Description: as §1, §2

[17] = target: T1, NGF (nerve growth factor); experiment: cell_activity; neurite outgrowth, NGF 0.38 nM; TF-1 IC50 0.055 nM; conditions: tags: human NGF; chain copies: 2
Description: as §1, §2

[18] = target: T1, NGF (nerve growth factor); experiment: cell_activity; neurite outgrowth, NGF 0.38 nM; TF-1 IC50 0.218 nM; conditions: tags: human NGF; chain copies: 2
Description: as §1, §2

[19] = target: T1, NGF (nerve growth factor); experiment: cell_activity; neurite outgrowth, NGF 0.38 nM; TF-1 IC50 0.239 nM; conditions: tags: human NGF; chain copies: 2
Description: as §1, §2

[20] = target: T1, NGF (nerve growth factor); experiment: cell_activity; neurite outgrowth, NGF 0.38 nM; TF-1 IC50 >0.3 nM; conditions: tags: human NGF; chain copies: 2
Description: as §1, §2

[21] = target: T1, NGF (nerve growth factor); experiment: cell_activity; neurite outgrowth, NGF 0.38 nM; TF-1 IC50 0.107 nM; conditions: tags: human NGF; chain copies: 2
Description: as §1, §2

[22] = target: T1, NGF (nerve growth factor); experiment: cell_activity; neurite outgrowth, NGF 0.38 nM; TF-1 IC50 0.122 nM; conditions: tags: human NGF; chain copies: 2
Description: as §1, §2

[23] = target: T1, NGF (nerve growth factor); experiment: cell_activity; neurite outgrowth, NGF 1.1 nM; SPR binding; blocks NGF-TrkA; TF-1 IC50 >30 nM; conditions: tags: amine-coupled to CM5 chip in SPR; soluble in cell assays; chain copies: 2
Description: as §1, §2

T1 sequence (P01138 122-241, one chain of several): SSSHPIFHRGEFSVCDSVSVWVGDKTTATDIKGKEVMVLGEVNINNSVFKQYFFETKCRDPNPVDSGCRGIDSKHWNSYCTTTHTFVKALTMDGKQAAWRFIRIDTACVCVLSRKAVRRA

B1: aptamer ID 43 (ssRNA)
RNA: GGGAGAACUUCGACCAGAAGUCGAUAACGAACAAAACUCCCAAAUAUGUGCGCAUACA
modifications: 2'-F at all pyrimidines
B1 was tested, and the IC50 [1] was < 3 nM.

In the case of GGGAGACUCGCAGAGUUGAAAGAAACCCAAAUAGUGUGCGCAC (ssRNA, 2'-F at all pyrimidines) [aptamer ID 30], the IC50 [2] is reported as < 0.3 nM.

With GGGAGACUCGCCAGAGUUGAAAGAAACCCAAAUAGUGUGCGCAC (ssRNA, 2'-F pyrimidines; 2'-OMe purines except 2'-OH at 3,19,20; 5' idT and 3' idT) [aptamer ID 29(1)] the IC50 [3] was 0.058 nM.

GGGAGACUCGCCAGAGUUGAAAGAAACCCAAAUAAGUGUGCGCAC (ssRNA, 2'-F all pyrimidines) [aptamer ID 26] was tested, and the IC50 [4] was < 1 nM.

B2: aptamer ID 26(30) (mixed)
RNA: GGGAGACUCGCCAGAGUUGAAAGAAACCCAAAUAAGUGUGCGCAC
modifications: as 26(19) (5' and 3' idT; 2'-F pyrimidines; 2'-OMe purines except ribo g3,g19,a20,a26) but c45 is dC
For B2, the IC50 [5] was 0.289 nM.

B3: aptamer ID 26(47) (ssRNA)
RNA: B2 RNA
modifications: 5' and 3' idT; 2'-OMe purines except ribo g3,g19,a20,a26; 2'-OMe c7,c11,c12,u17,u33,u37,c45; other pyrimidines 2'-F
With B3 the IC50 [6] was 0.065 nM.

B4: aptamer ID 26(10) (ssRNA)
RNA: B2 RNA
modifications: 5' and 3' idT; 2'-F all pyrimidines; 2'-OMe all purines except ribo g3,g5,g19,a20,a21,a22,a24
B4 showed an IC50 [7] of 0.047 nM.

B5: aptamer ID 26(48) (ssRNA)
RNA: B2 RNA
modifications: 5' and 3' idT; 2'-OMe purines except ribo g3,g19,a20,a26; 2'-OMe c7,c11,c12,u17,u18,u33,u37,c45; other pyrimidines 2'-F
For B5, the IC50 [8] was 0.053 nM.

B6: aptamer ID 26(45) (ssRNA)
RNA: B2 RNA
modifications: 5' and 3' idT; 2'-OMe purines except ribo g3,g19,a20,a26; 2'-OMe c7,c9,c11,c12,u17,u33,c45; other pyrimidines 2'-F
Binder B6 has an IC50 [9] of 0.238 nM.

B7: aptamer ID 26(32) (ssRNA)
RNA: B2 RNA
modifications: as 26(19) (5' and 3' idT; 2'-F pyrimidines; 2'-OMe purines except ribo g3,g19,a20,a26) but c11 is 2'-OMe
B7 showed an IC50 [10] of 0.22 nM.

B8: aptamer ID 26(19) (ssRNA)
RNA: B2 RNA
modifications: 5' and 3' idT; 2'-F all pyrimidines; 2'-OMe all purines except ribo g3,g19,a20,a26
B8 was tested, and the IC50 [11] was < 0.01 nM.

B9: aptamer ID 26(33) (ssRNA)
RNA: B2 RNA
modifications: as 26(19) (5' and 3' idT; 2'-F pyrimidines; 2'-OMe purines except ribo g3,g19,a20,a26) but c12 is 2'-OMe
With B9 the IC50 [12] was 0.294 nM.

B10: aptamer ID 26(65) (mixed)
RNA: B2 RNA
modifications: 5' PEG80TS4 via ssH linker; 3' idT; 2'-OMe purines except ribo g3,g19,a20,a26; 2'-F c28,c41,c43; dC27,dC29; other pyrimidines 2'-OMe
For B10, the IC50 [13] was 0.091 nM.

B11: aptamer ID 26(35) (ssRNA)
RNA: B2 RNA
modifications: as 26(19) (5' and 3' idT; 2'-F pyrimidines; 2'-OMe purines except ribo g3,g19,a20,a26) but c45 is 2'-OMe
Binder B11 has an IC50 [14] of 0.166 nM.

B12: aptamer ID 26(46) (ssRNA)
RNA: B2 RNA
modifications: 5' and 3' idT; 2'-OMe purines except ribo g3,g19,a20,a26; 2'-OMe c7,u8,c11,c12,u17,u33,c45; other pyrimidines 2'-F
B12 showed an IC50 [15] of 0.097 nM.

B13: aptamer ID 26(57) (mixed)
RNA: B2 RNA
modifications: 5' and 3' idT; 2'-OMe purines except ribo g3,g19,a20,a26; 2'-F c27,c28,u39,c43; dC29,dC41; other pyrimidines 2'-OMe
B13 gave an IC50 [16] of 0.213 nM.

B14: aptamer ID 26(60) (ssRNA)
RNA: B2 RNA
modifications: 5' and 3' idT; 2'-OMe purines except ribo g3,g19,a20 and 2'-F a26; 2'-F c27,c28,c29,u39,c41,c43; other pyrimidines 2'-OMe
In the case of B14, the IC50 [17] is reported as 0.105 nM.

B15: aptamer ID 26(39) (ssRNA)
RNA: B2 RNA
modifications: as 26(19) (5' and 3' idT; 2'-F pyrimidines; 2'-OMe purines except ribo g3,g19,a20,a26) but c7 is 2'-OMe; PS between a25 and a26
With B15 the IC50 [18] was 0.168 nM.

B16: aptamer ID 26(34) (ssRNA)
RNA: B2 RNA
modifications: as 26(19) (5' and 3' idT; 2'-F pyrimidines; 2'-OMe purines except ribo g3,g19,a20,a26) but u33 is 2'-OMe
In the case of B16, the IC50 [19] is reported as 0.247 nM.

B17: aptamer ID 26(40) (ssRNA)
RNA: B2 RNA
modifications: as 26(19) (5' and 3' idT; 2'-F pyrimidines; 2'-OMe purines except ribo g3,g19,a20,a26) but c7 is 2'-OMe; PS between a26 and c27
In the case of B17, the IC50 [20] is reported as 0.247 nM.

B18: aptamer ID 26(58) (mixed)
RNA: B2 RNA
modifications: 5' and 3' idT; 2'-OMe purines except ribo g3,g19,a20,a26; 2'-F c27,c28,u39,c41; dC29,dC43; other pyrimidines 2'-OMe
Binder B18 has an IC50 [21] of 0.143 nM.

B19: aptamer ID 26(56) (mixed)
RNA: B2 RNA
modifications: 5' and 3' idT; 2'-OMe purines except ribo g3,g19,a20,a26; 2'-F c27,c28,c41,c43; dC29,dU39; other pyrimidines 2'-OMe
B19 showed an IC50 [22] of 0.154 nM.

B20: aptamer ID 32 (ssRNA)
RNA: GGGAGAACUUCGACCAGAAGUCGAUAACGAACAAAACUCCCAAAGGAAUAUAUGUGCGCAUACA
modifications: 2'-F at all pyrimidines
Binder B20 has an IC50 [23] of 1 nM.
